What all share (assay): purified protein
Substrate in data set [1]: CCCCCCC(=O)C(=O)O
The following applies: amino acceptor, 10 mM 1-PEA as donor, pH 7, 45 °C.

Substrate in data set [2]: C[C@H](N)c1ccccc1
The note with it: amino donor, full reaction with 2.5 mM 2-OOA as acceptor, pH 7, 45 °C.

Substrate in data set [3]: COC(=O)CC(C)=O
The following applies: amino acceptor, 10 mM 1-PEA as donor, pH 7, 45 °C, highest concentration tested 20 mM.

The values below come from paper PMC6255834, “Single point mutations reveal amino acid residues important for Chromobacterium violaceum transaminase activity in the production of unnatural amino acids” (Scientific Reports, 2018).

What is called Km is the substrate concentration at which the rate is half of its maximum. For orientation: kcat means the number of substrate molecules converted per active site and unit of time at saturation. As a reminder, the kcat/Km is the turnover number divided by the Michaelis constant.

B1: CV_TA (Chromobacterium violaceum DSM30191 transaminase; ω-TA) (Chromobacterium violaceum ATCC 12472) (protein)
chain: MQKQRTTSQWRELDAAHHLHPFTDTASLNQAGARVMTRGEGVYLWDSEGNKIIDGMAGLWCVNVGYGRKDFAEAARRQMEELPFYNTFFKTTHPAVVELSSLLAEVTPAGFDRVFYTNSGSESVDTMIRMVRRYWDVQGKPEKKTLIGRWNGYHGSTIGGASLGGMKYMHEQGDLPIPGMAHIEQPWWYKHGKDMTPDEFGVVAARWLEEKILEIGADKVAAFVGEPIQGAGGVIVPPATYWPEIERICRKYDVLLVADEVICGFGRTGEWFGHQHFGFQPDLFTAAKGLSSGYLPIGAVFVGKRVAEGLIAGGDFNHGFTYSGHPVCAAVAHANVAALRDEGIVQRVKDDIGPYMQKRWRETFSRFEHVDDVRGVGMVQAFTLVKNKAKRELFPDFGEIGTLCRDIFFRNNLIMRACGDHIVSAPPLVMTRAEVDEMLAVAERCLEEFEQTLKARGLA
For the protein B1, in the data set “purified protein [1]”, the Km is 400 ± 150 µM, the kcat came to 0.412 ± 0.0733 s⁻¹ and the kcat/Km is 1030 M⁻¹ s⁻¹. The Km in “purified protein [2]” was determined as 2600 ± 630 µM. Further, in “purified protein [3]”, the Km was found to be 18800 ± 5000 µM, the kcat was determined as 0.155 ± 0.0117 s⁻¹ and the kcat/Km came out at 8.33 M⁻¹ s⁻¹.
